Data published in the supplement of paper PMC6757056.
± gives the standard deviation of the averaged measurements.

B1: library; a variant is named by its letters at N, in order (parent)
chain: GCUGUCACCGGUGCUUGGUACGUUAUAUUCAGCCGGUCUGAUGAGUCUNNNNNNAGACGAAACAGC

How the values were obtained:
[1] = variants of: B1; test: normalized RNA/DNA level without ligand (relative to sTRSVctl = 100) (log10 (% of sTRSVctl)); HEK293T overexpressing SLC46A1; higher = less ribozyme self-cleavage, higher mRNA level; settings: without (6R,S)-folinic acid; ligand present: no
Method in brief: (§1)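 Library plasmids carrying ribozyme switches linked to mCherry, or to eGFP in some ligand experiments, were transfected into HEK293T at 4 µg per 6-well well, with any ligand added 1 h earlier. Seventy-two hours on, total RNA was extracted with EDTA and reverse-transcribed, amplified, barcoded and sequenced. RNA level was RNA over DNA reads normalized to a spiked-in non-cleaving sequence or to the top sequences, then scaled and log-transformed. The top set was 25 sequences, the transform was ×100 and log10, and sequences needed ≥100 DNA reads.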

[2] = variants of: B1; test: normalized RNA/DNA level with ligand (relative to sTRSVctl = 100) (log10 (% of sTRSVctl)); HEK293T overexpressing SLC46A1; ligand concentration (+) RNA-Seq: 6 mM; higher = less ribozyme self-cleavage, higher mRNA level; settings: with (6R,S)-folinic acid; ligand present: yes
Method in brief: as §1

Row | Variant | normalized RNA/DNA level without ligand (log10) [1] | normalized RNA/DNA level with ligand (log10) [2]
1 | ACAUUU | 2 ± 0.024 | 2.019 ± 0.018
2 | ACAUUC | 2.072 ± 0.0067 | 2.027 ± 0.0058
3 | ACAUUG | 1.94 ± 0.032 | 2.024 ± 0.011
4 | ACAUUA | 2.006 ± 0.017 | 2.02 ± 0.034
5 | CCCGCU | 2.109 ± 0.014 | 2.08 ± 0.068
6 | CCCGCC | 2.0796 ± 0.00065 | 2.05 ± 0.03
7 | CCCGCG | 2.09 ± 0.023 | 2.01 ± 0.034
8 | CCCGCA | 2.06 ± 0.035 | 2.071 ± 0.02
9 | CCCCAU | 2.031 ± 0.01 | 2.03 ± 0.045
10 | CCCCAC | 2.04 ± 0.022 | 2.05 ± 0.037
11 | CCCCAA | 2.0237 ± 0.0015 | 1.999 ± 0.0078
12 | CCCCAG | 2.004 ± 0.019 | 2.038 ± 0.012
13 | GCAGUC | 2.046 ± 0.0028 | 2.05 ± 0.048
14 | GCAGUU | 2.03 ± 0.0047 | 2.04 ± 0.053
15 | GCAGUG | 1.9 ± 0.021 | 2.02 ± 0.038
16 | ACCCGG | 2.01 ± 0.022 | 2.04 ± 0.041
17 | ACCCGU | 2.0423 ± 0.0012 | 2.02 ± 0.0044
18 | ACCCGC | 2.038 ± 0.02 | 2.03 ± 0.041
19 | ACCACC | 2.087 ± 0.0062 | 2.06 ± 0.04
20 | ACCACU | 2.029 ± 0.0042 | 1.99 ± 0.066
21 | ACCACG | 2.023 ± 0.0076 | 2.061 ± 0.003
22 | ACCACA | 2.021 ± 0.0096 | 2.01 ± 0.021
23 | CCAGCG | 1.97 ± 0.025 | 1.99 ± 0.027

Row | Variant | normalized RNA/DNA level without ligand (log10) [1] | normalized RNA/DNA level with ligand (log10) [2]
24 | CCAGCU | 2.087 ± 0.018 | 2.036 ± 0.013
25 | CCCGAA | 2.029 ± 0.0067 | 2.02 ± 0.056
26 | CCCGAC | 2.043 ± 0.016 | 2.05 ± 0.033
27 | CCCGAG | 1.95 ± 0.0086 | 1.99 ± 0.022
28 | CCCGAU | 2.002 ± 0.016 | 2.017 ± 0.0026
29 | ACAUGA | 1.979 ± 0.01 | 2.034 ± 0.019
30 | ACAUGU | 2.022 ± 0.0056 | 2.02 ± 0.023
31 | ACAUGC | 2.014 ± 0.014 | 2.04 ± 0.07
32 | CCCGGA | 2.073 ± 0.016 | 2.03 ± 0.061
33 | CCCGGC | 2.08 ± 0.037 | 2.02 ± 0.065
34 | CCCGGG | 2.019 ± 0.0077 | 1.987 ± 0.0062
35 | CCAUAU | 1.961 ± 0.0029 | 1.99 ± 0.032
36 | CCAUAC | 1.991 ± 0.012 | 1.96 ± 0.059
37 | CCAUAG | 1.922 ± 0.0071 | 1.99 ± 0.02
38 | CCAUAA | 1.98 ± 0.023 | 1.97 ± 0.027
39 | GCCAAU | 2.001 ± 0.0032 | 2 ± 0.053
40 | GCCAAG | 2.0227 ± 0.0017 | 2.04 ± 0.038
41 | GCCAAC | 2.033 ± 0.02 | 2.055 ± 0.011
42 | UCAUUC | 2.067 ± 0.013 | 2.07 ± 0.021
43 | UCAUUU | 2.021 ± 0.014 | 2.02 ± 0.047
44 | UCAUUA | 2.003 ± 0.014 | 2.04 ± 0.023
45 | GCAUAC | 1.9845 ± 0.0011 | 2.03 ± 0.033
46 | UCAGCU | 2.046 ± 0.011 | 2.032 ± 0.0099

Row | Variant | normalized RNA/DNA level without ligand (log10) [1] | normalized RNA/DNA level with ligand (log10) [2]
47 | UCAGCC | 2.044 ± 0.0032 | 1.99 ± 0.039
48 | UCCAUG | 1.857 ± 0.005 | 1.97 ± 0.053
49 | UCCAUA | 1.972 ± 0.0018 | 1.98 ± 0.042
50 | UCCAUU | 2.033 ± 0.011 | 2.006 ± 0.006
51 | UCCAUC | 2.036 ± 0.018 | 2.01 ± 0.051
52 | UCCGGC | 2.08 ± 0.024 | 2.024 ± 0.018
53 | UCCGGA | 1.99 ± 0.038 | 2.02 ± 0.063
54 | UCCGGU | 2.032 ± 0.019 | 2.02 ± 0.052
55 | GCCCGU | 2.0126 ± 0.0014 | 2.007 ± 0.0028
56 | GCCCGG | 2.089 ± 0.005 | 2.02 ± 0.035
57 | GCCCGC | 2.0838 ± 0.0006 | 2.08 ± 0.03
58 | GCCCGA | 2.0343 ± 0.0013 | 2.04 ± 0.041
59 | UCAGUG | 1.78 ± 0.018 | 1.972 ± 0.011
60 | UCAGUU | 2.008 ± 0.02 | 2 ± 0.049
61 | UCAGUA | 1.98 ± 0.021 | 2 ± 0.046
62 | UCCCUC | 2.07 ± 0.041 | 2.053 ± 0.0051
63 | UCCCUA | 2.007 ± 0.0055 | 2 ± 0.024
64 | UCCCUG | 1.919 ± 0.013 | 2.03 ± 0.039
65 | UCCCUU | 2.03 ± 0.026 | 2.006 ± 0.0086
66 | ACCGCG | 1.994 ± 0.015 | 2.05 ± 0.017
67 | ACCGCC | 2.045 ± 0.02 | 2.05 ± 0.041
68 | ACCGCA | 2.009 ± 0.018 | 2.01 ± 0.024
69 | ACCGCU | 2.07 ± 0.026 | 2.08 ± 0.028

Row | Variant | normalized RNA/DNA level without ligand (log10) [1] | normalized RNA/DNA level with ligand (log10) [2]
70 | UCCAGU | 1.94 ± 0.029 | 1.99 ± 0.029
71 | UCCAGC | 2.035 ± 0.016 | 2.03 ± 0.022
72 | CCCACC | 2.022 ± 0.0044 | 1.99 ± 0.021
73 | CCCACG | 2.014 ± 0.0016 | 2.03 ± 0.021
74 | CCCACA | 2.05 ± 0.027 | 2 ± 0.034
75 | CCCACU | 2.103 ± 0.016 | 2.08 ± 0.062
76 | GCCGAU | 2.015 ± 0.007 | 2.05 ± 0.03
77 | GCCGAC | 1.982 ± 0.0078 | 2.04 ± 0.029
78 | CCCAGU | 2.05 ± 0.038 | 2.034 ± 0.02
79 | CCCAGG | 2.042 ± 0.006 | 2.01 ± 0.025
80 | CCCAGA | 2.0467 ± 0.00053 | 2.029 ± 0.012
81 | CCCAGC | 2.06 ± 0.035 | 2.06 ± 0.068
82 | ACAGGC | 2.03 ± 0.021 | 2.01 ± 0.032
83 | ACAGGA | 1.948 ± 0.011 | 2.03 ± 0.037
84 | CCCAUG | 2.044 ± 0.0075 | 2 ± 0.033
85 | CCCAUU | 2.09 ± 0.024 | 2.079 ± 0.01
86 | CCCAUA | 2.02 ± 0.036 | 2.03 ± 0.05
87 | CCCCUC | 2.05 ± 0.023 | 1.99 ± 0.038
88 | CCCCUU | 2.06 ± 0.023 | 2.05 ± 0.034
89 | GCCCCC | 2.03 ± 0.032 | 2.04 ± 0.048
90 | GCCCCG | 2.041 ± 0.012 | 1.99 ± 0.034
91 | GCCCCA | 2.031 ± 0.0049 | 2.01 ± 0.042
92 | GCCCCU | 2.0548 ± 0.00021 | 2.024 ± 0.011

Row | Variant | normalized RNA/DNA level without ligand (log10) [1] | normalized RNA/DNA level with ligand (log10) [2]
93 | GCCCUA | 2.034 ± 0.015 | 2.05 ± 0.032
94 | GCCCUU | 2.021 ± 0.0059 | 2.01 ± 0.044
95 | GCCCUG | 2.05 ± 0.023 | 2.04 ± 0.039
96 | GCCCUC | 2.047 ± 0.015 | 2.03 ± 0.065
97 | CCCCGG | 2.083 ± 0.0038 | 2.06 ± 0.022
98 | CCCCGU | 2.05 ± 0.028 | 2.047 ± 0.01
99 | CCCCGC | 2.09 ± 0.0037 | 2.05 ± 0.034
100 | CCAUGA | 1.981 ± 0.0035 | 2 ± 0.059
101 | CCAUGG | 1.986 ± 0.013 | 2.016 ± 0.015
102 | CCAUGC | 2.054 ± 0.015 | 2.05 ± 0.04
103 | GCCAUC | 2.02 ± 0.031 | 2 ± 0.032
104 | GCCAUU | 2.041 ± 0.0051 | 2.008 ± 0.015
105 | GCCAUA | 2.016 ± 0.0031 | 2.02 ± 0.052
106 | ACCAAU | 1.955 ± 0.01 | 2.012 ± 0.0037
107 | ACCAAG | 2.0073 ± 0.00077 | 2.009 ± 0.014
108 | ACCAAC | 2.025 ± 0.012 | 2.02 ± 0.029
109 | UCCCCG | 1.997 ± 0.008 | 2.041 ± 0.019
110 | UCCCCU | 2.06 ± 0.025 | 2.04 ± 0.049
111 | UCCCCC | 2.06 ± 0.033 | 2.063 ± 0.012
112 | UCCCCA | 2.052 ± 0.0085 | 2.04 ± 0.033
113 | GCCAGU | 2.056 ± 0.0089 | 2.049 ± 0.015
114 | ACAUAU | 1.94 ± 0.037 | 2.01 ± 0.022
115 | ACAUAG | 1.935 ± 0.013 | 2.02 ± 0.021
